Measurements published in US20250340902A1, “GENE THERAPY FOR BVES-RELATED DISORDERS” (OHIO STATE INNOVATION FOUNDATION, priority 2022, published 2025).

Columns and labels:
Test in all cases: anti-HA co-IP from muscle, MS; CTRL 0
[1] = target: Sorting and assembly machinery component 50 homolog (Mus musculus) (UniProt Q8BGH2)
[2] = target: Collagen alpha-1(XV) chain (Mus musculus) (UniProt O35206)
[3] = target: Leucine-rich PPR motif-containing protein, mitochondrial (Mus musculus) (UniProt Q6PB66)
Fibulin-1 (Mus musculus) = Fibulin-1 (Mus musculus) (UniProt Q08879)
Emerin (Mus musculus) = Emerin (Mus musculus) (UniProt O08579)
[4] = target: Coatomer subunit epsilon (Mus musculus) (UniProt O89079)
[5] = target: DnaJ homolog subfamily B member 12 (Mus musculus) (UniProt Q9QYI4)
[6] = target: Popeye domain-containing protein 3 (Mus musculus) (UniProt Q9ES81)
[7] = target: Extended synaptotagmin-2 (Mus musculus) (UniProt Q3TZZ7)
[8] = target: Nuclear speckle splicing regulatory protein 1 (Mus musculus) (UniProt Q5NCR9)
[9] = target: SUN domain-containing protein 2 (Mus musculus) (UniProt Q8BJS4)
Basigin (Mus musculus) = Basigin (Mus musculus) (UniProt P18572)
[10] = target: Exosome complex exonuclease RRP44 (Mus musculus) (UniProt Q9CSH3)
[11] = target: Fatty acid-binding protein, adipocyte (Mus musculus) (UniProt P04117)
[12] = target: Transmembrane protein 43 (Mus musculus) (UniProt Q9DBS1)
[13] = target: F-box only protein 40 (Mus musculus) (UniProt P62932)
[14] = target: Dystroglycan (Mus musculus) (UniProt Q62165)
[15] = target: Phosphatidylinositol 5-phosphate 4-kinase type-2 beta (Mus musculus) (UniProt Q80XI4)
[16] = target: Lupus La protein homolog (Mus musculus) (UniProt P32067)
[17] = target: Acetyl-CoA acetyltransferase, mitochondrial (Mus musculus) (UniProt Q8QZT1)
[18] = target: Haloacid dehalogenase-like hydrolase domain-containing protein 2 (Mus musculus) (UniProt Q3UGR5)
[19] = target: von Willebrand factor A domain-containing protein 8 (Mus musculus) (UniProt Q8CC88)
[20] = target: Obg-like ATPase 1 (Mus musculus) (UniProt Q9CZ30)
[21] = target: Actin-binding LIM protein 2 (Mus musculus) (UniProt Q8BL65)
[22] = target: Casein kinase II subunit alpha (Mus musculus) (UniProt Q60737)
Cullin-2 (Mus musculus) = Cullin-2 (Mus musculus) (UniProt Q9D4H8)
[23] = target: U1 small nuclear ribonucleoprotein 70 kDa (Mus musculus) (UniProt Q62376)
[24] = target: Solute carrier family 12 member 1 (Mus musculus) (UniProt P55014)
[25] = target: Microtubule-associated protein 4 (Mus musculus) (UniProt P27546)
[26] = target: Flavin reductase (NADPH) (Mus musculus) (UniProt Q923D2)
[27] = target: Eukaryotic translation initiation factor 3 subunit H (Mus musculus) (UniProt Q91WK2)
Nesprin-2 (Mus musculus) = Nesprin-2 (Mus musculus) (UniProt Q6ZWQ0)
[28] = target: Delta-sarcoglycan (Mus musculus) (UniProt P82347)
[29] = target: Tetraspanin-8 (Mus musculus) (UniProt Q8R3G9)
[30] = target: Keratin, type II cytoskeletal 7 (Mus musculus) (UniProt Q9DCV7)
[31] = target: N-alpha-acetyltransferase 50 (Mus musculus) (UniProt Q6PGB6)
[32] = target: Nucleolar and coiled-body phosphoprotein 1 (Mus musculus) (UniProt E9Q5C9)
[33] = target: Methylcrotonoyl-CoA carboxylase subunit alpha, mitochondrial (Mus musculus) (UniProt Q99MR8)
Ankyrin-2 (Mus musculus) = Ankyrin-2 (Mus musculus) (UniProt Q8C8R3)

Measured: AAV9-BVES-HA (IP-MS count)

Sequence of Coatomer subunit epsilon (Mus musculus) (O89079 whole entry): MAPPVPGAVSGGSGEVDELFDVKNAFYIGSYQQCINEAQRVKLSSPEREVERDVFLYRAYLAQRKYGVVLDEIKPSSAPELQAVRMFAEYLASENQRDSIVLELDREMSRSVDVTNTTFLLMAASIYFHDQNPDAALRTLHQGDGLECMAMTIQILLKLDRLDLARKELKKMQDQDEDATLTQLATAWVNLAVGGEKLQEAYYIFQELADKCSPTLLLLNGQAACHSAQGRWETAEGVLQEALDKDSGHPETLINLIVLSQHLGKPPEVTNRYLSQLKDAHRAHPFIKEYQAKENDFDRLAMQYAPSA
Sequence of Basigin (Mus musculus) (P18572 22-389 limits assumed): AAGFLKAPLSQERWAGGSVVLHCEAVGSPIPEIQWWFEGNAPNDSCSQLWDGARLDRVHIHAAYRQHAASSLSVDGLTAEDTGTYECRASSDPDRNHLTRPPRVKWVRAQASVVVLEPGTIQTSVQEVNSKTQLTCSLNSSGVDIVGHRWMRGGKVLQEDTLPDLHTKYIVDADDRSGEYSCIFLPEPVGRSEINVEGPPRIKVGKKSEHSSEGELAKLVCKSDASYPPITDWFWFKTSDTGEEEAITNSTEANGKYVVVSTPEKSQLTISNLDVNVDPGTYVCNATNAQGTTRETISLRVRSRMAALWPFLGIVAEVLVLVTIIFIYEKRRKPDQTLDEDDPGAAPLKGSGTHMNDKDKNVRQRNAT
Sequence of Methylcrotonoyl-CoA carboxylase subunit alpha, mitochondrial (Mus musculus) (Q99MR8 39-717 limits assumed): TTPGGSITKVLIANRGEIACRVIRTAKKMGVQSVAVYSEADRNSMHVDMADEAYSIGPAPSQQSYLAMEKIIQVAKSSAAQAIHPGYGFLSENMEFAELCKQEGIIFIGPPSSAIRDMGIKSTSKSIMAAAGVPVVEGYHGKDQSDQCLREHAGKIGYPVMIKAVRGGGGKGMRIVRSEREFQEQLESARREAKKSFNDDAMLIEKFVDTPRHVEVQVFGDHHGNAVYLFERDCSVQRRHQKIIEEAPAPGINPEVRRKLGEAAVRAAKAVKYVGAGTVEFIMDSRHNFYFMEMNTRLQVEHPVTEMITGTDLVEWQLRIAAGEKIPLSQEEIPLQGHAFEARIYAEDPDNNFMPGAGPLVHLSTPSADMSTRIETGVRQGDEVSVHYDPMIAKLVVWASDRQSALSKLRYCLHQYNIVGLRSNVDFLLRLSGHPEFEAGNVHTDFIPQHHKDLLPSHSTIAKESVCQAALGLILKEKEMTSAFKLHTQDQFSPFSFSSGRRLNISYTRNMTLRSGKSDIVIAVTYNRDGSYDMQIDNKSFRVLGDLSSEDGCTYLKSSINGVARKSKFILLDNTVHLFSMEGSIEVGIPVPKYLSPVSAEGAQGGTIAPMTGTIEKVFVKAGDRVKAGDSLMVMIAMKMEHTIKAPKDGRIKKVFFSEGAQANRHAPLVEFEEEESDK
Sequence of Cullin-2 (Mus musculus) (Q9D4H8 whole entry): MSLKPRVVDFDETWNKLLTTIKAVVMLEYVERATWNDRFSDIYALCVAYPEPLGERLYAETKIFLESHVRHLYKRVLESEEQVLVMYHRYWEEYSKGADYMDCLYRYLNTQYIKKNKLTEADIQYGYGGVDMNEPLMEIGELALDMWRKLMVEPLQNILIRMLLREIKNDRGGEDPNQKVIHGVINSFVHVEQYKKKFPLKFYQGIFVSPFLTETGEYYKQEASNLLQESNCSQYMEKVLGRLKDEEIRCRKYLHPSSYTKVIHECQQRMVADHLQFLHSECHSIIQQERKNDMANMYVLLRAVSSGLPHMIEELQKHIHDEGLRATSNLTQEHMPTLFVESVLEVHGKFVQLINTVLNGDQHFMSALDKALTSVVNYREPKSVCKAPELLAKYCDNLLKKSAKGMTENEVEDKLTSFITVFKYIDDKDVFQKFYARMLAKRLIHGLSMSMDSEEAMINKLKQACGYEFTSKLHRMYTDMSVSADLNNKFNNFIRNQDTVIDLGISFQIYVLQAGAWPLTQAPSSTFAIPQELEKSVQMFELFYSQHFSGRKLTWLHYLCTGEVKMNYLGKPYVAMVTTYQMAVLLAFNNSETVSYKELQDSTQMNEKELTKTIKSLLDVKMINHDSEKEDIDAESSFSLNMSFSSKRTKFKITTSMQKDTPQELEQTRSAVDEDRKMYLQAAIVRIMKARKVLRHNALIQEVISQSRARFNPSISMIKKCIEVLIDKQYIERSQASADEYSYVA
Sequence of DnaJ homolog subfamily B member 12 (Mus musculus) (Q9QYI4 whole entry, the tested form may be a part): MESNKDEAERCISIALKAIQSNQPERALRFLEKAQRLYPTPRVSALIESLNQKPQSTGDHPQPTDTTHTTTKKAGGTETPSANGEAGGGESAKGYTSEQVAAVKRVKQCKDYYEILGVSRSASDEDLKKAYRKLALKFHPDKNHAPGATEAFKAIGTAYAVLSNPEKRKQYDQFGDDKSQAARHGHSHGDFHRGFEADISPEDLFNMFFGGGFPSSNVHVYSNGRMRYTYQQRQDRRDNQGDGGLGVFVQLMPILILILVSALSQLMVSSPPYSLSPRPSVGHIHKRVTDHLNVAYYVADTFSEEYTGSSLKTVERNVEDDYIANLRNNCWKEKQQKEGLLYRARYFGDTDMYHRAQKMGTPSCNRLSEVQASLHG
Sequence of Phosphatidylinositol 5-phosphate 4-kinase type-2 beta (Mus musculus) (Q80XI4 2-416 limits assumed): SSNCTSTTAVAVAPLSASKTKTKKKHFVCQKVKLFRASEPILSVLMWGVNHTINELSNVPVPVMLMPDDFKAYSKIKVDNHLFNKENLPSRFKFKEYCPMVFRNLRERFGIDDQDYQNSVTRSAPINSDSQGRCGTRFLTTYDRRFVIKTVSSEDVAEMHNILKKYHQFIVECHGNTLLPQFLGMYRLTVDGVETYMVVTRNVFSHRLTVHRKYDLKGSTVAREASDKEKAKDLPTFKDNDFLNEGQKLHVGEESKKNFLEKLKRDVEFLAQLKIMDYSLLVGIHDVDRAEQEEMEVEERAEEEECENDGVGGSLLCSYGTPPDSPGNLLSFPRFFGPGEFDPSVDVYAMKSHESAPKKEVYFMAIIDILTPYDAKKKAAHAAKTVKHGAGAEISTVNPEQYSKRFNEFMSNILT
Sequence of Solute carrier family 12 member 1 (Mus musculus) (P55014 whole entry): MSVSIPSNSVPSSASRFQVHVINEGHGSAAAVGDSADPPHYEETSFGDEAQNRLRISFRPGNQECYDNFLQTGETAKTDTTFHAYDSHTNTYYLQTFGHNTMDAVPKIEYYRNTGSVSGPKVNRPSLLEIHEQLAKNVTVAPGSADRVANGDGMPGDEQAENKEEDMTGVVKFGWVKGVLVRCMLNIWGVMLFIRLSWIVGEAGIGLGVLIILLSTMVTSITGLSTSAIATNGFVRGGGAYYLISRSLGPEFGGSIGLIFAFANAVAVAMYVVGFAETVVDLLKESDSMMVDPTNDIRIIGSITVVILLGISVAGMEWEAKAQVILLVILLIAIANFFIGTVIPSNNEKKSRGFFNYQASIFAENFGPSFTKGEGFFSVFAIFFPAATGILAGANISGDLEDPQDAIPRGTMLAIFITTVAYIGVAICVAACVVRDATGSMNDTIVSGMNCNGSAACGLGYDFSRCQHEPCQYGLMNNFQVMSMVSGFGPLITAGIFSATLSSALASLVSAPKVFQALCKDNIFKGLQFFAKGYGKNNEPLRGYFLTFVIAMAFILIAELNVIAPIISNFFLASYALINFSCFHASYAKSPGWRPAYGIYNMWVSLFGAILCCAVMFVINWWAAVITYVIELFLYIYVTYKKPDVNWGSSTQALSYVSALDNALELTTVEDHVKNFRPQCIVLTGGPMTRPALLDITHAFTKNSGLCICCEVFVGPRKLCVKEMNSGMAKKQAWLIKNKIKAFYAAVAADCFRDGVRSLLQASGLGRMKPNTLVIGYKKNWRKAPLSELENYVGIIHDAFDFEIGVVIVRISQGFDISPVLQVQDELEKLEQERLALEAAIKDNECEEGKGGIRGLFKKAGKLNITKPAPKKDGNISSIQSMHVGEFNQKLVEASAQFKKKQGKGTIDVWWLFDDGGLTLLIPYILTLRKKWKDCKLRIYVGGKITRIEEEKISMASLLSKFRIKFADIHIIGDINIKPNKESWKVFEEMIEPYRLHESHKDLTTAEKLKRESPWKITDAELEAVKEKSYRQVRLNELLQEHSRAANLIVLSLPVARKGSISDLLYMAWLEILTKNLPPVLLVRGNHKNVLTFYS
Sequence of Flavin reductase (NADPH) (Mus musculus) (Q923D2 whole entry): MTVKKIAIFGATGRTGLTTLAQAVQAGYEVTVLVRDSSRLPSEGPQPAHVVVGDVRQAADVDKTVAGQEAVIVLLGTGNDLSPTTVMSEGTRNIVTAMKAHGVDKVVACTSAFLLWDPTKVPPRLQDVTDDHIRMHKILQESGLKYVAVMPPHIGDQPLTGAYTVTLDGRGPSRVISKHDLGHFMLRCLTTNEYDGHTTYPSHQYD
Sequence of Fatty acid-binding protein, adipocyte (Mus musculus) (P04117 2-132 limits assumed): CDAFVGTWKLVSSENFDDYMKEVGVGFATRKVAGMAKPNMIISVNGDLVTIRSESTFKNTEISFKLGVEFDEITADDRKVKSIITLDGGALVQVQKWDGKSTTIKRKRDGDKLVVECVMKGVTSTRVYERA
Sequence of Keratin, type II cytoskeletal 7 (Mus musculus) (Q9DCV7 2-457 limits assumed): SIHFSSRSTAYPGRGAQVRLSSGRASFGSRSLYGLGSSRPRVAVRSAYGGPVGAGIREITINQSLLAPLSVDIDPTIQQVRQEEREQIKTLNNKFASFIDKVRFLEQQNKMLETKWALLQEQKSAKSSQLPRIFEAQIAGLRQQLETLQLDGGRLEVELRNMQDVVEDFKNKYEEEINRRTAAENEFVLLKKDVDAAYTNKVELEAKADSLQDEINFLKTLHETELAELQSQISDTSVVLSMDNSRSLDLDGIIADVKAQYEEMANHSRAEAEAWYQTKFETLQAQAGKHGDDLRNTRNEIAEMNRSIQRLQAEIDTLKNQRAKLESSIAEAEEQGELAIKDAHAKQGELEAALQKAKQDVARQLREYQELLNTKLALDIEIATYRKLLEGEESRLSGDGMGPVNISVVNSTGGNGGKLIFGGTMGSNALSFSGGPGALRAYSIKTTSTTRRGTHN
Sequence of N-alpha-acetyltransferase 50 (Mus musculus) (Q6PGB6 whole entry): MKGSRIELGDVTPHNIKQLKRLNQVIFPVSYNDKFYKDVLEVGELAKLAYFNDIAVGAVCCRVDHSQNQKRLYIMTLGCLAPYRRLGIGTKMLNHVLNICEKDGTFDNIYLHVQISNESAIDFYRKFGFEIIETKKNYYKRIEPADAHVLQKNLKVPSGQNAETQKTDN

human BVES fused with 3xHA tag (from UniProt Q8NE79 1-360)
36: Ankyrin-2 (Mus musculus)
4: Basigin (Mus musculus) | [14] | [19]
8: [3]
14: [9]
3: Fibulin-1 (Mus musculus) | [18] | Cullin-2 (Mus musculus) | [32] | [33]
5: [1] | [6] | [17] | [28]
6: Emerin (Mus musculus)
7: [2]
17: [30]
2: all other assays above
